Substrate: O=[N+]([O-])c1ccc(O[C@@H]2O[C@@H](CO)[C@H](O)[C@H]2O)cc1
Experiment: purified protein
Conditions: general assay: sodium acetate buffer pH 5.5, 37 °C

B1: BLLJ_1852 (Bifidobacterium longum subsp. longum JCM 1217) (protein)
chain: DTVPTNNLIAAYDFTTKPSDGKTVANSAPNATLGAAEVQNSADSLWADDALTLSGGAKTGTGDWVKLPSNLLSGKDAATVQLEVKADSSMLNAFHFLWNIGNDSSDTEYFFATLNCGSSRNPLVGLKSGGTETLVQSSSCVAKADQWLSVTATIDGTAAKLYIDGTQVASGTVPAKLSSVKDQSLNTIGRSPWPDNLFKGAVSNFRVYDAALTADQVAAISTADASIHAGELTGSVLNGIIIPTTVDDPFISLPTANGVTWASSDSSVIATDGTVNQPAKGEAAKTVTLTAAVTVRGQTATKEFTVTVNPTTKTAAEQLKEVAAGYVIPSVVRSGDALPAAVNGTTVTVTSTKDVAVEDGKITIDGDEATTGTITVEFSKNGLAGIEPITKAFTVKVLPAAKSATIAAYDRNATGENEANNGDVAYSMHLALQNADGSYTPYNENYGIFFARSPKAQKLNENLDGNDYRSLKDPSLFRMADGTYGVISVRTNRGTATGDSTAKSSVLIATSEDLLTYSEQENSGSIVDLGETNGVNAPYAVYDTASKQYVVGWADDNGVAKYTTFDSLKGSTSKHGSVLYGSVAKSGVLAADGVQGIANFRSGATIAVDEATVKALNTRYGRSENTGTSNLTDITVKKGASIDEVTAQLPKNVDLTYSDGSTGSLPISSWNTEGIDLTKVGDYTVTGTVKQTEYQIPFAEDRADPSVYKWQWTHEADGKEVTETKFLMIASNDIQGDVTWQHGSPHMPFRMADTISGLADEPGNPNALIQSNGYNNKEVSLLKAGDKDSEGNAIMHSFWAPEIHEIDGRLTILFMAGYGNTWSNGKSVYMQLKQDADGHDLDPADPDNWTVPTPIYRNDASLLNGNKQLAATASGGVGMSLDMTYFQDADGRSYYAWQQLGATYIATMDPKDPAHVTSSPVRIVTPEYAWNAAIAEGPNVTLRDGKLYLMFSGSGVGKTYTTGLAVADASGTDLTDPASWTVLNYPIQKSGPFNGEMQLGTGHGMWSEDEDGNQIYVFHAYATKNLGSVNATGRDMFVRRVHWAADGMPVFDMSSSEELASKTVSVTVKVVDDTVTVDKTDLSKALASAKQLRESDYTAASWKAFAAALASAEKVYADENASQKDVDDATAALNKAQAALVKVDGSDSGDGSSDSTKPGDGSSIDAGATGDKTGNKLGLS
  Km: 9.8 mM
  kcat: 19.2 s⁻¹
